Molecular target: the molecule itself
Test: single-molecule photobleaching step analysis; U-2 OS cells labeled with a single Cy3B-labeled InlB321 variant; number of InlB321 in one spot on the plasma membrane

Row | Protein | stoichiometry N
1 | InlB321 K280C variant (with C242A), fluorophore-labeled (domain or fragment, Cy3B or ATTO 647N attached by maleimide chemistry to the single cysteine at position 280, Internalin B (InlB), invasion protein of Listeria monocytogenes, amino acids 36-321 of the full-length InlB (cap, leucine-rich repeat and inter-repeat region); The donor-labeled (Cy3B) and acceptor-labeled (ATTO 647N) batches of this variant are written as one molecule; Vector pETM30; also called T variant; tail) ETITVPTPIKQIFSDDAFAETIKDNLKKKSVTDAVTQNELNSIDQIIANNSDIKSVQGIQYLPNVTKLFLNGNKLTDIKPLANLKNLGWLFLDENKVKDLSSLKDLKKLKSLSLEHNGISDINGLVHLPQLESLYLGNNKITDITVLSRLTKLDTLSLEDNQISDIVPLAGLTKLQNLYLSKNHISDLRALAGLKNLDVLELFSQEALNKPINHQSNLVVPNTVKNTDGSLVTPEIISDDGDYECPNVKWHLPEFTNEVSFIFYQPVTIGKAKARFHGRVTQPLKE | 2
2 | InlB321 K64C variant (with C242A), fluorophore-labeled (domain or fragment, Cy3B or ATTO 647N attached by maleimide chemistry to the single cysteine at position 64, Internalin B (InlB), invasion protein of Listeria monocytogenes, amino acids 36-321 of the full-length InlB (cap, leucine-rich repeat and inter-repeat region); The donor-labeled (Cy3B) and acceptor-labeled (ATTO 647N) batches of this variant are written as one molecule; Vector pETM30; also called H variant; head) ETITVPTPIKQIFSDDAFAETIKDNLKKCSVTDAVTQNELNSIDQIIANNSDIKSVQGIQYLPNVTKLFLNGNKLTDIKPLANLKNLGWLFLDENKVKDLSSLKDLKKLKSLSLEHNGISDINGLVHLPQLESLYLGNNKITDITVLSRLTKLDTLSLEDNQISDIVPLAGLTKLQNLYLSKNHISDLRALAGLKNLDVLELFSQEALNKPINHQSNLVVPNTVKNTDGSLVTPEIISDDGDYEKPNVKWHLPEFTNEVSFIFYQPVTIGKAKARFHGRVTQPLKE | 2

From PMC11531568, “Single-molecule imaging and molecular dynamics simulations reveal early activation of the MET receptor in cells” (Nature Communications, 2024)
